In paper PMC10472834 (Cell metabolism, 2021):

Target: the molecule itself
Assay: cross-linking

B1: ME2-Flag catalytic-inactive mutant (CM), stably expressed in MOLM14 cells (natural protein)
chain: not shown
**Q.** Which “stoichiometry N” value does the source give for B1 here?
**A.** Its value is 2.
